The values that follow come from patent US20200123233A1 (published 2020).

Where a chain is given by its changes, count along the chain named.

A word on the Kd: it is the constant that tells how readily two partners part at equilibrium. Higher therefore signals a looser complex. What is called koff is a measure of how fast the partners let go of each other. A high value points to a short-lived complex. Broadly, the kon is the second-order rate constant of association. Low readings indicate slow association, high ones fast association.

Sequences and labels used below:
B1: PMP7B2 (VHH)
VHH: EVQLVESGGGLVQAGDSLRLSCAASGRTFSSYAMGWFRQAPGKEREFVAAISWSDGSTYYADSVKGRFTISRDNAKNTVYLQMNSLKPEDTAVYYCAADLTSTNPGSYIYIWAYDYWGQGTQVTVSS
B2: NC41v06 (VHH)
VHH: EVQLLESGGGLVQPGGSLRLSCAASGGSLSNYVLGWFRQAPGKGREFVAAINWRDDITIGPPNVEGRFTISRDNAKNTLYLQMNSLRPEDTAVYYCGAGTPLNPGAYIYDWSYDYWGQGTLVTVSS
B3: NC41v17 (VHH)
VHH: B2 VHH with D55G, A75S
B4: NC41 (VHH)
VHH: EVQLVESGGGLVQAGGSLSISCAASGGSLSNYVLGWFRQAPGKEREFVAAINWRGDITIGPPNVEGRFTISRDNAKNTGYLQMNSLAPDDTAVYYCGAGTPLNPGAYIYDWSYDYWGRGTQVTVSS
B5: PMP13D1 (VHH)
VHH: EVQLVESGGGLVQPGGSLRLSCATSGFTEDYYVIGWFRQAPGKEREGVSCMSSSGDSTTYADSVKGRFTISRDNAKNMVYLQMTSLKPEDTAVYYCAADFALGCYSGSYYPRYDYWGQGTQVTVSS
B6: PMP13C1 (VHH)
VHH: EVQLVESGGGLVQPGGSLRLSCEASGFTWDYYVIGWFRQAPGKEREGLSCISSDGSTTYADSVKGRFTISRDNAKNTVYLQMNSLEPEDTAVYYCATDPALGCYSGSYYPRYDYWGQGTQVTVSS
B7: PMP1B2 (VHH)
VHH: EVQLVESGGGLVQAGGSLRLSCAASGPTFSADTMGWFRQAPGKEREFVATIPWSGGIAYYSDSVKGRFTMSRDNAKNTVDLQMNSLKPEDTALYYCAGSSRIYIYSDSLSERSYDYWGQGTQVTVSS
B8: PMP13E12 (VHH)
VHH: EVQLVESGGGLVQAGGSLRLSCAASGRTFSRYIMGWFRQAPGKEREFVGAISRSGDITSFADFVKGRFTMSRDNAKNTLYLQMNSLEPEDTAVYSCAANSDTYYIYSDIVVPERYDYWGQGTQVTVSS
B9: PMP1A2 (VHH)
VHH: EVQLVESGGGLVQAGGSLRLSCAASERTFSYYAMGWFRQAPGKEREFVATISRSGEWIYYKDAMKGRFTISRDNANNAVYLQMNSLQPEDTAIYYCAADSLGGFRSASDYYNTNTYAYWGQGTQVTVSS

One assay deals with FTM-NN protein (membrane anchorless form of the Long fusion protein, 70 kDa) (human respiratory syncytial virus, …, UniProt P12568 26-524). The assay is described as follows: binding ELISA, periplasmic extract on immobilised antigen. A general note: In an ELISA, binding on a coated surface is turned into a signal by an enzyme label.
Turning to B1, the “Binding RSV-A, Fold blanc” value came out at 4.7 fold over blank.

A further assay concerns the target T1, FTM-NN (membrane anchorless form of the Long fusion protein, 70 kDa) (human respiratory syncytial virus, …, UniProt P12568 26-524).
T1 construct: domain: membrane anchorless form of the fusion protein
Description: SPR (Biacore), Ftm-NN protein immobilized on chip, Nanobody as analyte. For orientation: Surface plasmon resonance follows binding to a sensor surface in real time, without labels.
Molecule B2 came in with a Kd of 2.5 nM, a koff of 0.0048 s⁻¹ and an on-rate (kon) of 2e+06 M⁻¹ s⁻¹.
In the same order, the values of B3 are 3.2 nM, 0.0059 s⁻¹ and 1.9e+06 M⁻¹ s⁻¹.
Molecule B4 yielded a dissociation constant Kd of 4 nM, a koff of 0.0067 s⁻¹ and a kon of 1.7e+06 M⁻¹ s⁻¹.

A further assay deals with T2, FTM-NN protein (membrane anchorless form of the Long fusion protein of hRSV, 70 kDa) (human respiratory syncytial virus, …, UniProt P12568 26-524). Description: competition ELISA, periplasmic extract diluted 1:100, competitor 101F Fab.
As to B5, the “% Inhibition 101F Fab (1:100 PE)” value was 78%.
As to B6, the “% Inhibition 101F Fab (1:100 PE)” value was determined as 57%.
On the same count and under the same terms, in the case of B7 it was 82%.
Take B8: the “% Inhibition 101F Fab (1:100 PE)” value was 74%.
Same read-out and setting: for B9 the value was 82%.

For the next assay, the target named is T2, FTM-NN protein (membrane anchorless …). The assay is described as follows: competition ELISA, periplasmic extract diluted 1:300, competitor 101F Fab.
On to B5, for which the “% Inhibition 101F Fab (1:300 PE)” value is 52%.
On the same count and under the same terms, in the case of B6 it was 37%; in that of B7, 58%; in that of B8, 28%.
Still for that read-out and setting: for B9 the value was 27%.

For a further assay the target is unchanged. The assay is described as follows: competition ELISA, periplasmic extract diluted 1:1000, competitor 101F Fab.
As to B5, the “% Inhibition 101F Fab (1:1000 PE)” value stood at 16%.
In the case of B6, the “% Inhibition 101F Fab (1:1000 PE)” value was 9%.
The same measure, in the same setting: for B7 the value was 25%.
B8: the “% Inhibition 101F Fab (1:1000 PE)” value was 8%.
Consider B9, for which the “% Inhibition 101F Fab (1:1000 PE)” value was 5%.

A further assay shares this target. Description: ELISA, periplasmic extract on immobilised F protein; signal as fold over blank.
With B5, the “Binding RSV-A, Fold blanc” value was 3.1 fold over blank.
B6: the “Binding RSV-A, Fold blanc” value was determined as 3 fold over blank.
Regarding B7, the “Binding RSV-A, Fold blanc” value came out at 3.8 fold over blank.
B8: the “Binding RSV-A, Fold blanc” value turned out to be 3.7 fold over blank.
Regarding B9, the “Binding RSV-A, Fold blanc” value worked out at 4 fold over blank.
